B1: Proto-oncogene tyrosine-protein kinase LCK (Mus musculus), P06240 (parent)
chain: MGCVCSSNPEDDWMENIDVCENCHYPIVPLDSKISLPIRNGSEVRDPLVTYEGSLPPASPLQDNLVIALHSYEPSHDGDLGFEKGEQLRILEQSGEWWKAQSLTTGQEGFIPFNFVAKANSLEPEPWFFKNLSRKDAERQLLAPGNTHGSFLIRESESTAGSFSLSVRDFDQNQGEVVKHYKIRNLDNGGFYISPRITFPGLHDLVRHYTNASDGLCTKLSRPCQTQKPQKPWWEDEWEVPRETLKLVERLGAGQFGEVWMGYYNGHTKVAVKSLKQGSMSPDAFLAEANLMKQLQHPRLVRLYAVVTQEPIYIITEYMENGSLVDFLKTPSGIKLNVNKLLDMAAQIAEGMAFIEEQNYIHRDLRAANILVSDTLSCKIADFGLARLIEDNEYTAREGAKFPIKWTAPEAINYGTFTIKSDVWSFGILLTEIVTHGRIPYPGMTNPEVIQNLERGYRMVRPDNCPEELYHLMMLCWKERPEDRPTFDYLRSVLDDFFTATEGQYQPQP

Variants of: B1
Settings: with cd4_mouse Cd4, P06332
Sequence of cd4_mouse Cd4, P06332 (P06332 whole entry): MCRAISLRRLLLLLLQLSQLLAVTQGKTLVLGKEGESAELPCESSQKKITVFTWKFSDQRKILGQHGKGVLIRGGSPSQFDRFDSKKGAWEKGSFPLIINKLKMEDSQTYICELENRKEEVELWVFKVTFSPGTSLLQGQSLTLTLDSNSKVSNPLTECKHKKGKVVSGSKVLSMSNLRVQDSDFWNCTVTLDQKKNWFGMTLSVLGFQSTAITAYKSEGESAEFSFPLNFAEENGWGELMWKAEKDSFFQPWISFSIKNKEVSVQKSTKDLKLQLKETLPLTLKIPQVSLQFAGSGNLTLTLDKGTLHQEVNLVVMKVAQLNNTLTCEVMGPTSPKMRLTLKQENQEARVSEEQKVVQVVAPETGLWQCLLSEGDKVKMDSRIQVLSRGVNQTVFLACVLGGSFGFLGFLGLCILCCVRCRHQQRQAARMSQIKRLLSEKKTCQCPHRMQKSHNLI

effect of a mutation on the interaction	Variant
disrupting interaction strength	C20A;C23A

Variants of: B1
Settings: with cd8a_mouse Cd8a

effect of a mutation on the interaction	Variant
disrupting interaction strength	C20A;C23A

From IntAct's records for PubMed 24034254
